Measurements: patent publication WO2016171242A1 (dated 2016)

What was measured:
[1] = target: T1, human EPHA5 without signal sequence, FLAG-tagged, expressed from pFLAG-EPHA5 (human, UniProt P54756 56-1037); test: flow cytometry on transfected 293F cells
T1 construct: not shown: FLAG tag supplied by the vector pFLAG-GW

[2] = target: T2, human EPHB3 without signal sequence, FLAG-tagged, expressed from pFLAG-EPHB3 (human, UniProt P54753 38-998); test: flow cytometry on transfected 293F cells
T2 construct: not shown: FLAG tag supplied by the vector pFLAG-GW
T2 sequence: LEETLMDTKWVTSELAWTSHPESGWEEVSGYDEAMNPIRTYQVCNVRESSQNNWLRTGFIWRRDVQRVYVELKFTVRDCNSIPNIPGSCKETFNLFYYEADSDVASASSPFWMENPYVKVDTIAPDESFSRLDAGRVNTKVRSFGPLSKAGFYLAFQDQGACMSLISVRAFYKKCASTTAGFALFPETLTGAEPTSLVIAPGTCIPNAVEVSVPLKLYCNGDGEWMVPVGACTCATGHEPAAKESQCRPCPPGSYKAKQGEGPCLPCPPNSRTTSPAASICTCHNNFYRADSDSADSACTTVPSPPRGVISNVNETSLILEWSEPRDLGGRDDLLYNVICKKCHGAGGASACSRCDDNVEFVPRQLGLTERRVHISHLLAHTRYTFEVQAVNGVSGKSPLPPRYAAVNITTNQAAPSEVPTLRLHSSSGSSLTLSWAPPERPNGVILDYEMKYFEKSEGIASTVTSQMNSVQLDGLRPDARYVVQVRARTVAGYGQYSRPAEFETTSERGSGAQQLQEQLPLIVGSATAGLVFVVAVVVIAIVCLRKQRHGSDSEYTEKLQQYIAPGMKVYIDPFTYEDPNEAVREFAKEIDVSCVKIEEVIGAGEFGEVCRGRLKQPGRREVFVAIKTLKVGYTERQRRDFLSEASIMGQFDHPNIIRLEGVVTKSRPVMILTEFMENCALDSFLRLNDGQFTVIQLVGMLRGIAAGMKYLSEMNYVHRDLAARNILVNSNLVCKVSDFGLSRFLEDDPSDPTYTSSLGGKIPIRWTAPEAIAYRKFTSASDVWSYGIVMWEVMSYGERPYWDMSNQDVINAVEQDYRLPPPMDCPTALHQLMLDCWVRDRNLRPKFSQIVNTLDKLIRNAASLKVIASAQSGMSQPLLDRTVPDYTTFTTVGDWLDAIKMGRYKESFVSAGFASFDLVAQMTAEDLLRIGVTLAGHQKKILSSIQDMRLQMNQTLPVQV

[3] = target: T3, human PTPRS isoform 4 without signal sequence, FLAG-tagged, expressed from pFLAG-PTPRS-4 (human, UniProt Q13332 30-1948); test: flow cytometry on transfected 293F cells
T3 construct: not shown: FLAG tag supplied by the vector pFLAG-GW
T3 sequence: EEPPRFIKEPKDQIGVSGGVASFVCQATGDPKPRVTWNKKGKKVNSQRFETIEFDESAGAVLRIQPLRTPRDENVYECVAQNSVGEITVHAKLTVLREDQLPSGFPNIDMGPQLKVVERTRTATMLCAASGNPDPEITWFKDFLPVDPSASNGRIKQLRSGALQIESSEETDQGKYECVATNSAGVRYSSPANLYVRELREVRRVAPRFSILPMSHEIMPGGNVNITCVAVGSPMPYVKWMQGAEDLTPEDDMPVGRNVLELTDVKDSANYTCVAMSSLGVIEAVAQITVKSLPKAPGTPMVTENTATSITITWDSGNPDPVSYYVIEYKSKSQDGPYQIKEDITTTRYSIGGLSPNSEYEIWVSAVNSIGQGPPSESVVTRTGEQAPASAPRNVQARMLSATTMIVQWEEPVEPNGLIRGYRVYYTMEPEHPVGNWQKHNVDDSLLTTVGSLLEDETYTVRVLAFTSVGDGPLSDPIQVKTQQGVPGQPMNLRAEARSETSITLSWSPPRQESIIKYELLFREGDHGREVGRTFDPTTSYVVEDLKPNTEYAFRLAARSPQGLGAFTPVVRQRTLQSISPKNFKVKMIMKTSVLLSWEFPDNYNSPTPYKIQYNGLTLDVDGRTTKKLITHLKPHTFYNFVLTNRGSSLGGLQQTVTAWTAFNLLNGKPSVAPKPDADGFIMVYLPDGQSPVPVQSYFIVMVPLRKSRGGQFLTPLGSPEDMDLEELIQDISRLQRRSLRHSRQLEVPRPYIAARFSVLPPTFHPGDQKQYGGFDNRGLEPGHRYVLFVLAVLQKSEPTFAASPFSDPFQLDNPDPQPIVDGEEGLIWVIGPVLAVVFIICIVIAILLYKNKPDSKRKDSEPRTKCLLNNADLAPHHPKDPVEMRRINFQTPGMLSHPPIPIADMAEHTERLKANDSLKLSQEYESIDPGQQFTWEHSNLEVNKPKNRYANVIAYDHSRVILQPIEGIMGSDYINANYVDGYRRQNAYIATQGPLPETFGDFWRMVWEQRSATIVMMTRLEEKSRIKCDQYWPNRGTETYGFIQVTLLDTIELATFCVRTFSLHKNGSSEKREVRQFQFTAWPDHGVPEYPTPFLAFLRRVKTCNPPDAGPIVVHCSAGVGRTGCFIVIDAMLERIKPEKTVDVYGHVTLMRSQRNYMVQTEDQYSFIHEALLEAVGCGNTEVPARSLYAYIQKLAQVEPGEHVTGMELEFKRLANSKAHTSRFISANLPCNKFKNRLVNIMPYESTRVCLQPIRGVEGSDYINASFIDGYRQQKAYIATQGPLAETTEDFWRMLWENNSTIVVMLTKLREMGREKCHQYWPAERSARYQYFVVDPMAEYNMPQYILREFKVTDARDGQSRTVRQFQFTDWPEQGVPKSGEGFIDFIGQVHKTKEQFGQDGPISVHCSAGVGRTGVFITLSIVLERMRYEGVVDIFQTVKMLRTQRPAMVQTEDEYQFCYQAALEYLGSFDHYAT

[4] = target: T4, human PTPRS isoform 2 without signal sequence, FLAG-tagged, expressed from pFLAG-PTPRS-2 (human, UniProt Q13332 30-1948); test: flow cytometry on transfected 293F cells
T4 construct: not shown: FLAG tag supplied by the vector pFLAG-GW

[5] = target: T5, endogenous human EPHA2 (on MDA-MB-231 cells or 293F cells) (human, UniProt P29317 24-976); test: immunohistochemistry on formalin-fixed, paraffin-embedded MDA-MB-231 cells
T5 construct: Untagged protein made by the cell lines themselves; also called endogenous EPHA2; EPHA2 endogenously expressed MDA-MB-231 cells
T5 sequence (P29317 24-976): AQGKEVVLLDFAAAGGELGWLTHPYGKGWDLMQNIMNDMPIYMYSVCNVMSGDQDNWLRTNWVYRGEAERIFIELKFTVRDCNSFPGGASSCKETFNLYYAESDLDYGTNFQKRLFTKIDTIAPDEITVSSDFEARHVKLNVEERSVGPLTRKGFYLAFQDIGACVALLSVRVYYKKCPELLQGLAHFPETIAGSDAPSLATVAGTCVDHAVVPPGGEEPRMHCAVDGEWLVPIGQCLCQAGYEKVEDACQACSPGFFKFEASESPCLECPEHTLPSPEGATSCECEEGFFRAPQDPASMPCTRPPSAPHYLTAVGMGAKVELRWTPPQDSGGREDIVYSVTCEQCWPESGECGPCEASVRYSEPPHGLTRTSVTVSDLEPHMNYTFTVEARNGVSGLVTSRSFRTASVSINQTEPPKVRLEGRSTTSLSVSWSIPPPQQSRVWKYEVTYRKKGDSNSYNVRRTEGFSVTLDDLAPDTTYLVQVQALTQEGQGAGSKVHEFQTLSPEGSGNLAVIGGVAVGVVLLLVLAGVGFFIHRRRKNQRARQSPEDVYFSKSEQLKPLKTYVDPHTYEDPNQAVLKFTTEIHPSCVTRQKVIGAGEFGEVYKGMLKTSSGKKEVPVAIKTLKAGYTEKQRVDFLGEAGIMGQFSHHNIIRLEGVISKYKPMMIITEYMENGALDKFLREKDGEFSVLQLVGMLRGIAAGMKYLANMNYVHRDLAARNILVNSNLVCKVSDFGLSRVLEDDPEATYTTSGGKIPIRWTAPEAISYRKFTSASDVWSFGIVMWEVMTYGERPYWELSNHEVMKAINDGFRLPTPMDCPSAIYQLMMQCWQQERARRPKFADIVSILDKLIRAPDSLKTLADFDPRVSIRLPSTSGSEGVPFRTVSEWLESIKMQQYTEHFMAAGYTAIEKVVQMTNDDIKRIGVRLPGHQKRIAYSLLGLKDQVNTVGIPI

T1 sequence (P54756 56-1037): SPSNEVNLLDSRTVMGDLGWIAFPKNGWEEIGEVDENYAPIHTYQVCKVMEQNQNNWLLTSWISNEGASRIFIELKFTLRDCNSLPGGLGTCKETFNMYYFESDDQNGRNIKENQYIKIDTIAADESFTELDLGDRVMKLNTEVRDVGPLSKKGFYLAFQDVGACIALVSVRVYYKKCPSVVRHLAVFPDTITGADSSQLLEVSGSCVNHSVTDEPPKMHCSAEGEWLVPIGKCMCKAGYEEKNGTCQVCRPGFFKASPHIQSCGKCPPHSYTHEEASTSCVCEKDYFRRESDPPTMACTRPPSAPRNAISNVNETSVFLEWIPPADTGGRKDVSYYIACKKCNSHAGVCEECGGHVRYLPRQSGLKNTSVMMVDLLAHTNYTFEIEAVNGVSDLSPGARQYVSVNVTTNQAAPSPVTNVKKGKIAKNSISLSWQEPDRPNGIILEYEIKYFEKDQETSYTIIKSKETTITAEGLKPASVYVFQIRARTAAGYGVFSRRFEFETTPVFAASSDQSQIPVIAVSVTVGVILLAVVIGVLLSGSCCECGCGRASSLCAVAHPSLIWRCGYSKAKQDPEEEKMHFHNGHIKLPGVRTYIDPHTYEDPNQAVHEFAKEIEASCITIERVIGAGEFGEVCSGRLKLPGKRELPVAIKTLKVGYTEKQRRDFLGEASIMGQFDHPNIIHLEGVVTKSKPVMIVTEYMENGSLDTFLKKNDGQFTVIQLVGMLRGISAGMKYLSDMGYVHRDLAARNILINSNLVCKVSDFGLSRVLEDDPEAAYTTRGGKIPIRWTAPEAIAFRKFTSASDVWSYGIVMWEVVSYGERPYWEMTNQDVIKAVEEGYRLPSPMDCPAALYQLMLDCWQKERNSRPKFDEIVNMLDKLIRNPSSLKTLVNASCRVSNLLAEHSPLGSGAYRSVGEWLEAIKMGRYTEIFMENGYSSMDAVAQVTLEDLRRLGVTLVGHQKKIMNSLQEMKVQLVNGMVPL

| Binder | binding result [1] | binding result [2] | binding result [3] | binding result [4] | binding result [5] |
| --- | --- | --- | --- | --- | --- |
| mouse anti-human EPHA2 antibody A205 (antibody, V domains shown, Mouse monoclonal antibody purified from hybridoma supernatant, isotype IgG2b; also called A205 antibody) VH: QIQLVQSGPELKKPGETVKISCKASGYTFTDYSMNWVKQAPGKGLKWMGWINTYTGEPTYADDFKGRFAFSLETSASTAYLQINNLKNEDTATYFCASPISLLRLLDYWGQGTTLTVSS VL: DVVMTQTPLSLPVSLGDQASIPCRSSQSLVHSNGNTYLHWYLQKPGQSPKLLIYKVSNRFSGVPDRFSGSGSGTDFTLKISRVEAEDLGVYFCSQSTHVPWTFGGGTKLEIKR | no binding | no binding | no binding | no binding | binds |
| mouse anti-human EPHA2 antibody A201 (antibody, V domains shown, Mouse monoclonal antibody purified from hybridoma supernatant, isotype IgG1; also called A201 antibody) VH: EVQLQQSGAELVKPGASVKLSCTVSGFTFKDTYVHWVKQRPEQGLEWIGRIDPANANTKYDPKFQGKASITADTSSNTAYLQLSSLPSEDTAVYYCAAYGKSAWFAYWGQGTLVTVSA VL: DIQMTQTTSSLSASLGDRVTISCRASQDIGNYLNWYQQKPDGTVKVLIYYTSRLHSGVPSRFSGSGSGTDYSLTISNLEQEDIATYFCQQGHSLPPTFGGGTKLEIKR | no binding | no binding | no binding | no binding | binds |
